Test results reported in patent US20220289850 (published 2022).

Biological target: T1, human integrin avb3 (human, UniProt P06756)
T1 chain 1: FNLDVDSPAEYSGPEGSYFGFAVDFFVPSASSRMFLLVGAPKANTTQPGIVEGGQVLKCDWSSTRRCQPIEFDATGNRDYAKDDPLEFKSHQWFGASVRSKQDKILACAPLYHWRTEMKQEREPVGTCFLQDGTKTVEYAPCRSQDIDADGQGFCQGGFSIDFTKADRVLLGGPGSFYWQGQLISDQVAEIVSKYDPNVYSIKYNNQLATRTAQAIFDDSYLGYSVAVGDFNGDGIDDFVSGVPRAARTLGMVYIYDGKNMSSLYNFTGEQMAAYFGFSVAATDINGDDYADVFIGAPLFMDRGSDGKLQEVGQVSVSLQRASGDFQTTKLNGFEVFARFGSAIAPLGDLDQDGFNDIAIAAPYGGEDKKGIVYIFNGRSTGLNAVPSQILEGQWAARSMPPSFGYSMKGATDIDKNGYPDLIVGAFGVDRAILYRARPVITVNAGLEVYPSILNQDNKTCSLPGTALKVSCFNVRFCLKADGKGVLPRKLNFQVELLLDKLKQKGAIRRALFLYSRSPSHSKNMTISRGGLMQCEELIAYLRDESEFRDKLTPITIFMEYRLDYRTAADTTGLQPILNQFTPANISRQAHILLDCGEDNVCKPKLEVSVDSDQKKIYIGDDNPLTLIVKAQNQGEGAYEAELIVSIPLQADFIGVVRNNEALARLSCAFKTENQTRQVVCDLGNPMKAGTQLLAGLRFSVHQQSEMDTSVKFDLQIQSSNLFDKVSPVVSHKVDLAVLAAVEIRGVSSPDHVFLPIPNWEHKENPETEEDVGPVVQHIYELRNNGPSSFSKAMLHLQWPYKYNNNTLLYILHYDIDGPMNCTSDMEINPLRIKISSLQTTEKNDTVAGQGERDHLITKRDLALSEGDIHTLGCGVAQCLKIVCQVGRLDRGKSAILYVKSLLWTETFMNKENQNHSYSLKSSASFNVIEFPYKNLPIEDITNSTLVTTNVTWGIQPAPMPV
T1 chain 2: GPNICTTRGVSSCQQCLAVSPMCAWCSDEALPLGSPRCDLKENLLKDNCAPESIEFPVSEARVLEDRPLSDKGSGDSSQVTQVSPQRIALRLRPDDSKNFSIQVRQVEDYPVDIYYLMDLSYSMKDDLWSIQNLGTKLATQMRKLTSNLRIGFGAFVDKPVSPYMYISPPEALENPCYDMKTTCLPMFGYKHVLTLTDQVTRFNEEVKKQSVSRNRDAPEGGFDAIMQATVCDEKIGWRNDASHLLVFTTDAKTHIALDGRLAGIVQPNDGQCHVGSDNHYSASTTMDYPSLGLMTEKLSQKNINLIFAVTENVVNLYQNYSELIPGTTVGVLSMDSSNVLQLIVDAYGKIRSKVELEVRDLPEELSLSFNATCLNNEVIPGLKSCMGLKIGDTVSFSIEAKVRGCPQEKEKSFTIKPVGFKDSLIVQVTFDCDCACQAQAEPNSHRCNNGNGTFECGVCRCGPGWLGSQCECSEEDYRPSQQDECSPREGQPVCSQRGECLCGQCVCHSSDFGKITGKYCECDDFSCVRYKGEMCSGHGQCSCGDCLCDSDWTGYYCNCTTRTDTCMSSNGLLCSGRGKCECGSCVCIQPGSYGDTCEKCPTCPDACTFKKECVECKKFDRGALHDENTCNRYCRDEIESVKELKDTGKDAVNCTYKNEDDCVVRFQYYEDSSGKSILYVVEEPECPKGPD
Assay: SPR

binding result: no binding
B1: ADWA11 2.4 IgG (antibody)
chain 1: EVQLVESGGGLVQPGGSLRLSCAASGFNIKDYYMNWVRQAPGKGLEWVGWIDPDQGNTIYEPKFQGRFTISADTSKNSAYLQMNSLRAEDTAVYYCARRLLMDYWGQGTLVTVSSASTKGPSVFPLAPSSKSTSGGTAALGCLVKDYFPEPVTVSWNSGALTSGVHTFPAVLQSSGLYSLSSVVTVPSSSLGTQTYICNVNHKPSNTKVDKKVEPKSCDKTHTCPPCPAPEAAGAPSVFLFPPKPKDTLMISRTPEVTCVVVDVSHEDPEVKFNWYVDGVEVHNAKTKPREEQYNSTYRVVSVLTVLHQDWLNGKEYKCKVSNKALPAPIEKTISKAKGQPREPQVYTLPPSREEMTKNQVSLTCLVKGFYPSDIAVEWESNGQPENNYKTTPPVLDSDGSFFLYSKLTVDKSRWQQGNVFSCSVMHEALHNHYTQKSLSLSPGK
chain 2: DIQMTQSPSSLSASVGDRVTITCRSTKSLSHFNGNTYLFWYQQKPGKAPKRLIYYMSSLASGVPSRFSGSGSGTDFTLTISSLQPEDFATYYCQQSLEYPFTFGGGTKVEIKRTVAAPSVFIFPPSDEQLKSGTASVVCLLNNFYPREAKVQWKVDNALQSGNSQESVTEQDSKDSTYSLSSTLTLSKADYEKHKVYACEVTHQGLSSPVTKSFNRGEC
